Data as given in US20240287172A1 (SCIRHOM, published 2024).

T1: hiR2-FL-K536A-T7 (human, UniProt Q6PJF5 1-856)
T1 construct: on MEF-DKO cells
T1 sequence: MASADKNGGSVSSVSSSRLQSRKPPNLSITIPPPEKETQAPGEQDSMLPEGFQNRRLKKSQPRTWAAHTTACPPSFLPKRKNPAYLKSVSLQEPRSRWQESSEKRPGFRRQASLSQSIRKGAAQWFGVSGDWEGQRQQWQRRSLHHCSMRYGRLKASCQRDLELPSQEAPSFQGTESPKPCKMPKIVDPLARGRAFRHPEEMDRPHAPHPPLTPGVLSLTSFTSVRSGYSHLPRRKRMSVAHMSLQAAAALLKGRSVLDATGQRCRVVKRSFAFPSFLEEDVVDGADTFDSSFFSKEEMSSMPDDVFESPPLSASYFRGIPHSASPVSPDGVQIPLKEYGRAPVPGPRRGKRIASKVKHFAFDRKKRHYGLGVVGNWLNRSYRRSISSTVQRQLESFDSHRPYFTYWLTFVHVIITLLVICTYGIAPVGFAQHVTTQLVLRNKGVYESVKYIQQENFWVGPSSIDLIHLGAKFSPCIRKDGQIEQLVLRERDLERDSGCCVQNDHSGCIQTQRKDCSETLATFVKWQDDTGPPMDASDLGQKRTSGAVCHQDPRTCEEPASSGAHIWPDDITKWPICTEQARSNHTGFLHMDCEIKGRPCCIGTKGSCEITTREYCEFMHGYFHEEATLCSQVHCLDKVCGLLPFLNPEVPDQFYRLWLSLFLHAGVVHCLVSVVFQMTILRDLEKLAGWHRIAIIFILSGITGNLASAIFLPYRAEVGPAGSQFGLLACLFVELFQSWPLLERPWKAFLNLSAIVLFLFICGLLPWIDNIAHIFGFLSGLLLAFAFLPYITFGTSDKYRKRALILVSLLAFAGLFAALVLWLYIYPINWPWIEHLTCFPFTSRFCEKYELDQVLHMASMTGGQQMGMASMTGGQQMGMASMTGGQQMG

T2: hiR2-FL-G546A-T7 (human, UniProt Q6PJF5 1-856)
T2 sequence: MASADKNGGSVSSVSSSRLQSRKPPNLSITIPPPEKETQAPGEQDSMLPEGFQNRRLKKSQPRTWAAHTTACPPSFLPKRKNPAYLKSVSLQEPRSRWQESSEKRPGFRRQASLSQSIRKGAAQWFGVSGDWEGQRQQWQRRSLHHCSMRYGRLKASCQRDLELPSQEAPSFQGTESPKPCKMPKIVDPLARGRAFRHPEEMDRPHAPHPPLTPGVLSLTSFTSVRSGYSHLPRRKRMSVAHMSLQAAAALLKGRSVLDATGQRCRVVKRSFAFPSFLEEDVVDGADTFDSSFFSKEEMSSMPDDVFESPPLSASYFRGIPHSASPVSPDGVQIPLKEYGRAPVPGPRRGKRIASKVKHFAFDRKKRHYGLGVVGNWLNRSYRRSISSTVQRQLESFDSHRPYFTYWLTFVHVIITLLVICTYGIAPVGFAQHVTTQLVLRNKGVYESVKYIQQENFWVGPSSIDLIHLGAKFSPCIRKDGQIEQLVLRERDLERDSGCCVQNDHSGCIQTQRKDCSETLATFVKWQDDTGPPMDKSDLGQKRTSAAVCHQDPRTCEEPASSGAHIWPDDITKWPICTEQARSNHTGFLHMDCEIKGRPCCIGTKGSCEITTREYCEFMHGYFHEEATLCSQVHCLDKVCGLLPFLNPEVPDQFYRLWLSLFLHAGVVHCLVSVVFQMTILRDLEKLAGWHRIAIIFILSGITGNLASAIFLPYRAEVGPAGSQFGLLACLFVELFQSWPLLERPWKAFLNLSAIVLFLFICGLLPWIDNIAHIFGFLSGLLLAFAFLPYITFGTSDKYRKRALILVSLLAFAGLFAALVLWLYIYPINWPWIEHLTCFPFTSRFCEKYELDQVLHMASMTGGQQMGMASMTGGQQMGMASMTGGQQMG


Assays:
hiR2-FL-K536A-T7 = biological target: T1, hiR2-FL-K536A-T7; assay: FACS on MEF-DKO cells expressing the variant, 3 µg/ml antibody
Outline: (§1)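 Cells were stained with purified antibody at 3 μg/ml in FACS buffer for 1 hour on ice, with buffer-only controls. Bound antibody was detected with PE-conjugated goat anti-mouse IgG F(ab′)2 at 1:100, 1 hour on ice in the dark, followed by flow cytometry.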

hiR2-FL-G546A-T7 = biological target: T2, hiR2-FL-G546A-T7; assay: as above
Outline: as §1

Binder	loss of binding vs wild type (hiR2-FL-K536A-T7) [%]	loss of binding vs wild type (hiR2-FL-G546A-T7) [%]
antibody 16 (antibody, V domains shown, mouse IgG, kappa light chain; also called clone #16; purified antibody 16) VH: QVTLKESGPGILQPSQTLSLTCSFSGFSLSTFALGVGWIRQPSGRGLEWLAHIWWDDDKYYNPALKSRLTISKDTSKNHVFLKIANVDTADTATYYCARITTYYYGMDYWGQGTSVTVSS VL: DIVLSQSPATLSVTPGDSVSLFCRASQSIGNHLHWYQQESHASPRLLIKYASQSISGIPSRFSGSGSGTDFTLSINSVETEDFGMYFCQQSYNWPLTFGAGTKLELK	≥ 60	
antibody 3 (antibody, V domains shown, mouse IgG, kappa light chain; also called clone #3; purified antibody 3) VH: QVTLKESGPGILQPSQTLSLTCSFSGFSLTTFAMGIGWVRQPSGKGLEWLAHIWWDGEKYNNPVLKSRLTISKDTSKNQVFLRIANVDTPDTATYYCARISSIYYIIDNWGQGTSVTVSS VL: DIVLTQSPATLSVTPGHSVSLSCRASQSISNNLHWYQKKSHESPRLLIKYVSQSISGIPSRFSGSGSGTDFTLSINSVETEDFGMYFCQQSYNWPLTFGAGTKLELK	≥ 60	≥ 30
antibody 5 (antibody, V domains shown, mouse IgG, kappa light chain; also called clone #5; purified antibody 5) VH: QVTLKESGPGILQPSQTLSLTCSFSGFSLSTFGMGVGWIRQPSGKGLEWLAHIWWDDEKYYNSALKSRLTISKATSKNQAFLKIANVDTADTATYYCARISNYGSNYWYFNVWGTGTTVTVSS VL: QVVLTQSPALMSASPGEKVTMTCSAGSSVSCMYWYQQKPGSSPRVLIYDTSNLASGVPARFTGSGSGTSYSLTISRMEAEDAASYYCQQWNSYPLTFGAGTKLELK	≥ 95	≥ 30
antibody 43 (antibody, V domains shown, mouse IgG, kappa light chain; also called clone #43; purified antibody 43) VH: QVALKESGPGILQPSQTLSLTCSFSGFSLSTFGMGVGWIRQSSGKGLEWLANIWWDDDKYYNPALKSRLTISKDASKNQAFLKIANVDTADTATYYCARIGNYGSNYWYFDVWGTGTTVTVSS VL: QIVLTQSPAIMSASPGERVTMTCSANSRISYMYWYQQKPGSSPRLLIYDTSNLASGVPVRFSGSGSGTSYSLTISRMEAEDAATYNCQQWSSYPLTFGAGTKLELK	≥ 60	≥ 30
antibody 44 (antibody, V domains shown, mouse IgG, kappa light chain; also called clone #44; purified antibody 44) VH: QVTLKESGPGILQPSQTLSLTCSFSGFSLSTFGMGVGWIRQPSEKGLEWLAHIWWDDDKYYNPALKSRLTISKDTSKNQIFLKITNVDTAETATYYCSRIGNYGSNYWYFDVWGTGTTVTVSS VL: QIVLTQSPAVMSASPGEKVTMTCTASSSVYYMYWYQQTPGSSPRLLIYDTSNLASGVPVRFSGSGSGTSYSLTISRMEAEDAATYYCQQWNTYPLTFGAGTKLELK		≥ 30
antibody 34 (antibody, V domains shown, mouse IgG, kappa light chain; also called clone #34; purified antibody 34) VH: QVTLKESGPGILQPSQTLSLTCSFSGFSLSTFSLGVGWIRQSSGKGLEWLAHIWWDDEKYYNPALKSRLTISKDTSKNQVFLKIANVDAADTATYYCARAYYSKSYYALDYWGQGTSVTVSS VL: DIQMTQSPSSLSASLGERVSLTCRASQEISGYLSWLQQKPDGTIKRLIYAASTLDSGVPKRFSGSRSGSDYSLAISSLESEDFADYYCLQYANFPFTFGSGTKLEIK		≥ 30
antibody 48 (antibody, V domains shown, mouse IgG, kappa light chain; also called clone #48; purified antibody 48) VH: QVQLQQSGTELVRPGTSVKVSCKASGYAFTNYLIEWVKQRPGQGLEWIGVINPGSGFTKYNEKFKGKATLTADKSSSTVYMHLSSLTSEDSAVYFCARGLYRAMDYWGQGTSVTVSS VL: DIQMTQSPASQSASLGESVTITCLASQTIATWLAWYQQKPGKSPQLLIYGATTLADGVPSRFSGGGSGTKFSFKISSLQAEDFVSYYCQQLYSTPYTFGGGTKLEIK	≥ 30	
